Assay results taken from patent US20210388105A1 (ELPISCIENCE SUZHOU BIOPHARMA, published 2021).
Positions count from the first letter of the chain named. One block for each binder: values may come before it.

Key:
[1] = molecular target: T1, human CD39 (full length, on cells) (human, UniProt P49961 1-510); experiment: FACS, SK-MEL-5 cells
T1 construct: Recombinant on CHOK1-hCD39 cells or natural on SK-MEL-28, SK-MEL-5 and MOLP-8 cells; the cell line is named under assay; also called hCD39; ENTPD1
T1 sequence: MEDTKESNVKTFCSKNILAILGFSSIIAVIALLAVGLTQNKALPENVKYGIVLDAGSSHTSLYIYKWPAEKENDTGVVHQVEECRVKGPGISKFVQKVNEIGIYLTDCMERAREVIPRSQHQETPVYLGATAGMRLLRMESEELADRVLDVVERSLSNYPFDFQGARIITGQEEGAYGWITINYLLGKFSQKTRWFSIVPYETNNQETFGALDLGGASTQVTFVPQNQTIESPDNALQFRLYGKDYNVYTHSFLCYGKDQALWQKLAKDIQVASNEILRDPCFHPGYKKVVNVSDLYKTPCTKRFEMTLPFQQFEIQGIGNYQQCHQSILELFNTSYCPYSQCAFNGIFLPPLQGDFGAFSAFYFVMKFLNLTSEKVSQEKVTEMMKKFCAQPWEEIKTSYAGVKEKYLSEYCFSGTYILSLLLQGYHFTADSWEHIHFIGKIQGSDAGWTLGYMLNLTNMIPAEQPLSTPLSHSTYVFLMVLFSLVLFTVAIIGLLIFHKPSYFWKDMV
Experimental: Similarly, human CD39 expressing cells SK-MEL-5, SK-MEL-28 or MOLP-8, were incubated with a gradient concentration of anti-CD39 antibodies for 30 minutes at 4° C. Cells were washed 3 times using FACS buffer and next incubated with fluorescence labelled secondary antibody (goat-anti-mouse IgG or goat anti-human IgG) for 30 minutes at 4° C. Cells were washed 3 times and then re-suspended in FACS buffer and analyzed by flow cytometry analysis on BD Celesta. Data plotted and analyzed using GraphPad Prism 8.02.
Binding affinity of the humanized antibodies hu23.H5L5 and hu14.H1L1 were tested on different cells by FACS following the similar method as described in Example 3.2.
Reference antibodies T895 and 1394 were tested in parallel as control antibodies. As shown in FIG. 12 and summarized in Table 23, both antibodies hu23.H5L5 and hu14.H1L1 bound to human and cynomolgus CD39 expressing cells in a dose-dependent manner and with similar affinity by EC₅₀ at a sub-nanomolar or nanomolar level. Neither of them recognized mouse CD39 in the FACS study. Maximum signal (mean fluorescence intensity, MFI) differed between cells for each antibody may result from their different expression level.

[2] = molecular target: T1, human CD39 (full length, on cells); experiment: FACS competition on CHOK1-hCD39; competitor mAb14-Alexa488
Experimental: (§1) Anti-CD39 antibodies were labeled using Alex488 labeling kit and were diluted in a series of concentrations, before mixing with CHOK1-hCD39 cells to test binding EC₅₀using FACS. The non-labeled antibodies were tested for their blocking efficacy to the labelled ones. Briefly, mononuclear CHOK1-hCD39 cells were prepared to 2×10⁶/ml and plated into 96 well at 50 μl/well, then mixed with antibodies gradients to final volume at 100 μl, and then equal volume of Alex488 label antibodies were added at two folds EC80 concentration. 96 well plates were incubated at 4° C. for 1 hour, and spun down and washed 3 times with 200 μl FACS buffer. The FACS analysis was performed on FACScelesta machine and data was analyzed by Flowjo software. The blocking percentages were calculated and those having above 80% competition rate were allocated into one epitope group, compared with the non-competing well (Alex488 labeled antibody only).
(§2) Based on the competition results, the 4 anti-CD39 hybridoma antibodies (mAb14, mAb19, mAb21, mAb23) can be grouped into 4 different epitope groups, as shown in Table 11.

[3] = molecular target: T2, cynomolgus CD39 (full length, on CHOK1-cynoCD39 cells) (cynomolgus monkey, UniProt A0A7N9DGH8 1-510); experiment: FACS, CHOK1-cynoCD39 cells
T2 construct: whole, on cells; also called cCD39
T2 sequence: T1 sequence with V47I, F94Y, V221I, I230T, I329V, K368N, A391S, F489V, T490I
Procedure, shortened: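 Cells incubated 60 min at 4 °C with anti-CD39 antibodies in 4-fold serial dilution from 30 μg/ml in PBS/1% FBS/0.05% Tween-20; CHOK1-blank cells as negative control. Binding read by flow cytometry as mean fluorescence intensity; apparent affinity fitted from full binding curves.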

[4] = molecular target: T1, human CD39 (full length, on cells); experiment: FACS competition on CHOK1-hCD39; competitor mAb21-Alexa488
Experimental: as §1, §2

B3: Antibody 9-8B (antibody, V domains shown)
VH: QIQLVQSGPELKKPGETVKISCKASGYTFTHYGMNWVKQAPGKGLKWMGWINTYTGELTYADDFKGRFAFSLETSASTAYLQINNLKNEDTATYFCARRAYYRYDYVMDYWGQGTSVTVSS
VL: DIVMTQSQKFMSTSVGDRVSVTCKASHNVGTNVAWYQQKPGQSPKALIYSASYRYSGVPGRFTGSGSGTDFTLTISNVQSEDLAEYFCHQYNNYPYTFGGGTKLEIK
- blocking percentage [2]: 55%
- EC50 [3]: 1.6 nM
- blocking percentage [4]: 16%

B4: Antibody T895 (antibody, V domains shown)
VH: EVQLQQSGPELVKPGASVKMSCKASGYTFTDYNMHWVKQSHGRTLEWIGYIVPLNGGSTFNQKFKGRATLTVNTSSRTAYMELRSLTSEDSAAYYCARGGTRFAYWGQGTLVTVSA
VL: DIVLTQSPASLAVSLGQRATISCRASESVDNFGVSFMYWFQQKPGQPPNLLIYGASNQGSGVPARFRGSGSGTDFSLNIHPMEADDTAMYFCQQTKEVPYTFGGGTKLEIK
notes: also called 31895
- EC50 [1]: 0.21 nM

Other lines, results leading:

- EC50 [1]: 0.69 nM
B1: hu23.H5L5 (antibody, V domains shown)
VH: QVQLVQSGAEVKKPGASVKVSCKASGYNLKDTFLHWVRQAPGQGLEWMGRIDPANGNIKYDPKFQGRVTITADTSANTAYMELISLRSEDTAVYYCANSPYYYGSGYRIFDVWGQGTTVTVSS
VL: QIVLTQSPATLSLSPGERATLSCSAFSSVNYMHWYQQKPGQAPRLLIYTTSNLASGIPTRFSGSGSGTSYTLTISSLEPEDFAVYYCQQRSTYPFTFGQGTKLEIK
notes: humanized c23

- blocking percentage [2]: 98%
- EC50 [3]: 3.4 nM
- blocking percentage [4]: 10%
B2: mAb14 (antibody, V domains shown)
VH: EVKLEESGGGLVQPGGSMKLSCVASGFTFSKYWMNWVRQSPEKGLEWVAEIRLKSNKYGTHYAESVKGRFTISRDDSKNNVYLQMNNLRPEDTGIYYCTTQLDLYWFFDVWGAGTTVTVSS
VL: DIVMTQSPAILSVTPGDRVSLSCRASQSISDYLHWYQQKSHESPRLLIKYASQSISGIPSRFSGSGSGSNFTLSINSVEPEDVGVYFCQNGHSLPLTFGAGTKLELR
notes: mouse hybridoma antibody
